Literature values in patent US12383526B2, “Optimized sigma-1 agonist method of responder selection and treatment” (ANAVEX LIFE SCIENCES CORP., priority 2018, dated 2025).

Conditions: after 72 weeks; CTAD 2018; cited from earlier work

B1: BAN2401: comparison from other studies: data presented at CTAD 2018 for BAN2401 after 72 weeks (antibody, chains of the INN, looked up, V domains shown)
VH: EVQLVESGGGLVQPGGSLRLSCSASGFTFSSFGMHWVRQAPGKGLEWVAYISSGSSTIYYGDTVKGRFTISRDNAKNSLFLQMSSLRAEDTAVYYCAREGGYYYGRSYYTMDYWGQGTTVTVSS
VL: DVVMTQSPLSLPVTPGAPASISCRSSQSIVHSNGNTYLEWYLQKPGQSPKLLIYKVSNRFSGVPDRFSGSGSGTDFTLRISRVEAEDVGIYYCFQGSHVPPTFGPGTKLEIK
adjusted mean change from baseline in ADAS-Cog: 47% | adjusted mean change in ADCOMS: 30%
